Data: the supplement of paper PMC10567573

B1: S100A14 (parent)
chain: KIANLGSCNDSKLEFRSFWELIGE

Variants of: B1
Experiment: protein stability index of a GFP-peptide fusion (GPS, HEK-293T) (PSI 1-6); higher = more stable
Details: c terminus: a fixed tail appended
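Also: lentivirally expressed fusions sorted by FACS into six bins by GFP to DsRed ratio, PSI derived from sequencing read proportions per bin multiplied by bin number.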

Row | Variant | protein stability index
1 | KIANLGSCEDSKLEFRSFWELIGE | 2.19
2 | KIANLGSCNHSKLEFRSFWELIGE | 2.31
3 | KIANLGSCNLSKLEFRSFWELIGE | 2.55
4 | KIANLGSCNSSKLEFRSFWELIGE | 2.4
5 | KIANLGSCNYSKLEFRSFWELIGE | 1.63
6 | KIANLGSCNDSKLEFRSFWELWGE | 1.67
7 | KIANLGSCNDSKLEFRSFWELKGE | 2.32
8 | KIANLGSCNDSKLEFRSFWELDGE | 2.65
9 | KIANLGSCNDSKLEFRSFWELHGE | 1.9
10 | KIANLGSCNDSKLEFRSFWELMGE | 1.82
11 | KIANLGSCNDSKLEFRSFWELQGE | 2.24
12 | KIANLGSCNDSKLEFRSFWELFGE | 2.95
13 | KIANLGSCNDSKLEFRSFWELAGE | 2.59
14 | KIANLGSCNDSKLEFRSFWELIGI | 2.86
15 | KIANLGSCNDSKLEFRSFWELIGR | 1.37
16 | KIANLGSCNDSKLEFRSFWELIGH | 2.8
17 | KIANLGSCNDSKLEFRSFWELIGW | 2.1
18 | KIANLGSCNDSKLEFRSFWELIGK | 2.06
19 | KIANLGSCNDSKLEFRSFWELIGY | 1.84
20 | KIANLGSCNDSKLEFRSFWELIGP | 1.7
21 | KIANLGSCNDSKLEFRSFWELIGC | 1.53
22 | KIANLGSCNDSKLEFRSFWELIQE | 2.19
23 | KIANLGSCNDSKLEFRSFWELIFE | 1.44
24 | KIANLGSCNDSKLEFRSFWELIIE | 1.86

Row | Variant | protein stability index
25 | KIANLGSCNDSKLEFRSFWELIVE | 2.18
26 | KIANLGSCNDSKLEFRSFWELISE | 1.87
27 | KIANLGSCNDSKLEFRSFWELINE | 2.21
28 | KIANLGSCNDSKLEFRSFWELIPE | 2.04
29 | KIANLGSCNDSKLPFRSFWELIGE | 1.61
30 | KIANLGSCNDSKLYFRSFWELIGE | 2.01
31 | KIANLGSCNDSKLAFRSFWELIGE | 1.81
32 | KIANLGSCNDSKLDFRSFWELIGE | 1.89
33 | KIANLGSCNDSKLHFRSFWELIGE | 1.71
34 | KIANLGSCNDSKLKFRSFWELIGE | 1.47
35 | KIANLGSCNDSKLFFRSFWELIGE | 1.89
36 | KIANLGSCNDSKLMFRSFWELIGE | 2.13
37 | KIANLGSCNDSKLIFRSFWELIGE | 2.54
38 | KIANLGSCNDSKLNFRSFWELIGE | 1.54
39 | KIANLGSCNDSKLEFRSFWEPIGE | 2.59
40 | KIANLGSCNDSKLEFRSFWEQIGE | 1.76
41 | KIANLGSCNDSKLEFRSFWEFIGE | 2.16
42 | KIANLGSCNDSKLEFRSFWEEIGE | 2.08
43 | KIANLGSCNDSKLEFRSFWETIGE | 2
44 | KIANLGSCNDSKLEFRSFWEAIGE | 2.74
45 | KIANLGSCNDSKLEFRSFWERIGE | 1.94
46 | KIANLGSCNDSKLEFRSFWEMIGE | 1.23
47 | QIANLGSCNDSKLEFRSFWELIGE | 2.02
48 | GIANLGSCNDSKLEFRSFWELIGE | 2.04

Row | Variant | protein stability index
49 | LIANLGSCNDSKLEFRSFWELIGE | 1.15
50 | IIANLGSCNDSKLEFRSFWELIGE | 1.79
51 | PIANLGSCNDSKLEFRSFWELIGE | 1.95
52 | DIANLGSCNDSKLEFRSFWELIGE | 1.86
53 | MIANLGSCNDSKLEFRSFWELIGE | 1.59
54 | RIANLGSCNDSKLEFRSFWELIGE | 1.59
55 | SIANLGSCNDSKLEFRSFWELIGE | 2.19
56 | FIANLGSCNDSKLEFRSFWELIGE | 2.99
57 | KFANLGSCNDSKLEFRSFWELIGE | 1.55
58 | KKANLGSCNDSKLEFRSFWELIGE | 1.54
59 | KHANLGSCNDSKLEFRSFWELIGE | 2.31
60 | KRANLGSCNDSKLEFRSFWELIGE | 2.13
61 | KNANLGSCNDSKLEFRSFWELIGE | 1.6
62 | KGANLGSCNDSKLEFRSFWELIGE | 2
63 | KIANLGSCNDSKLEFRSFIELIGE | 1.97
64 | KIANLGSCNDSKLEFRSFPELIGE | 3.25
65 | KIANLGSCNDSKLEFRSFHELIGE | 2.74
66 | KIANLGSCNDSKLEFRSFNELIGE | 2.71
67 | KIANLGSCNDSKLEFRSFGELIGE | 2.68
68 | KIANLGSCNDSKLEFRSFKELIGE | 2.11
69 | KIANLGSCNDSKLEFRCFWELIGE | 2.16
70 | KIANLGSCNDSKLEFREFWELIGE | 1.87
71 | KIANLGSCNDSKLEFRTFWELIGE | 2.75
72 | KIANLGSCNDSKLEFRNFWELIGE | 1.5

Row | Variant | protein stability index
73 | KIANLGSCNDSKLEFRWFWELIGE | 2.28
74 | KIANLGSCNDSKLEFRAFWELIGE | 3.38
75 | KIANLGSCNDSKLEFRLFWELIGE | 2.86
76 | KIANLGSCNDSKLEFRQFWELIGE | 2.75
77 | KIANLGSCNDSKLEFRYFWELIGE | 1.84
78 | KIANLGKCNDSKLEFRSFWELIGE | 1.44
79 | KIANLGMCNDSKLEFRSFWELIGE | 1.62
80 | KIANLGICNDSKLEFRSFWELIGE | 1.89
81 | KIANLGVCNDSKLEFRSFWELIGE | 2.58
82 | KIANLGGCNDSKLEFRSFWELIGE | 1.62
83 | KIANLGRCNDSKLEFRSFWELIGE | 2.03
84 | KIANLGNCNDSKLEFRSFWELIGE | 2.32
85 | KIANLGFCNDSKLEFRSFWELIGE | 2.13
86 | KIANLGLCNDSKLEFRSFWELIGE | 1.79
87 | KIAMLGSCNDSKLEFRSFWELIGE | 1.64
88 | KIAILGSCNDSKLEFRSFWELIGE | 1.9
89 | KIAPLGSCNDSKLEFRSFWELIGE | 1.83
90 | KIAVLGSCNDSKLEFRSFWELIGE | 1.98
91 | KIAYLGSCNDSKLEFRSFWELIGE | 2.32
92 | KIADLGSCNDSKLEFRSFWELIGE | 1.73
93 | KIAQLGSCNDSKLEFRSFWELIGE | 1.72
94 | KIAFLGSCNDSKLEFRSFWELIGE | 2.7
